Assay [1] addresses putative IBC-1 receptor on G361 melanoma cells, lower affinity binding site (human). Briefly: Scatchard analysis of AP-IBC-1 binding to G361 melanoma cells; lower affinity slope.
For assay [2], the target named is putative IBC-1 receptor on G361 melanoma cells, moderately high affinity binding site (human). The assay can be described thus: Scatchard analysis of AP-IBC-1 binding to G361 melanoma cells; moderately high affinity slope.
For assay [3], the target named is putative IBC-1 receptor on G361 melanoma cells, lower affinity binding site (human). Briefly: Scatchard analysis of AP-IBC-1 binding to G361 melanoma cells, bound AP activity; lower affinity slope.
In assay [4] the target is putative IBC-1 receptor on G361 melanoma cells, moderately high affinity binding site (human). The assay can be described thus: Scatchard analysis of AP-IBC-1 binding to G361 melanoma cells, bound AP activity; moderately high affinity slope.

Our source for the binding sites/cell (binding sites/cell) and Kd values is EP1438388B1.

Broadly, the Kd is the free concentration of one partner at which half of the binding sites on the other are occupied at equilibrium, for simple one-to-one binding. A high value points to a looser complex.

For “alkaline phosphatase-IBC-1 fusion protein (from UniProt P81605 20-110) (ligand)”, the binding sites/cell (binding sites/cell) in assay [1] is 350000; in assay [2] it was 17000. The Kd in assay [3] was 360 nM; in assay [4], 37.5 nM.
